{
  "source": "patent US7049122B2",
  "about": "“Mutant-type lipases and applications thereof” (priority 2001, dated 2006)",
  "key": {"[1]": {"tested_on": "CCCC(=O)Oc1ccc([N+](=O)[O-])cc1", "assay": "Kinetic analysis of hydrolysis of p-nitrophenyl butyrate (p-nitrophenol formation), mutant V649I", "type": "biochemical, Staphylococcus epidermidis", "conditions": "other: V649I, substrate p-nitrophenyl butyrate, 50 mM phosphate buffer (pH 6.0), 37° C., means ± standard error, three experiments", "excerpt": "(§1) The mutant-type lipase is preferably obtained from site-directed mutagenesis of a lipase isolated from Staphylococcus, most favorably Staphylococcus epidermidis. The mutant lipase from Stapylococcus epidermidis that has an alanine residue replacing the methionine residue which immediately follows the serine residue of the Ser-His-Asp catalytic triad has the amino acid sequence of SEQ ID NO: 15. The mutant lipase from Stapylococcus epidermidis that has an isoleucine residue replacing the valine residue which immediately follows the histidine residue of the Ser-His-Asp catalytic triad has the amino acid sequence of SEQ ID NO: 17.\n(§2) The purified enzymes and substrate p-nitrophenyl butyrate (2.64 mM predissolved in 2.1% Triton X-100) were mixed in 50 mM phosphate buffer (pH 6.0). The reactions were carried out at 37° C. for 15 min and were terminated by the addition of acetone (1:1, v/v) (Kazlauskas 1994). The absorption values of the reaction product (p-nitrophenol) at 346 nm were determined, and the hydrolase activity (a general indicator for the lipolytic activity) of the purified enzymes was obtained, after converting the absorption values into mmols of p-nitrophenol quantity (at pH 6.0) curve. The molar extinction coefficient of p-nitrophenol under this condition was 2988[…]."}, "[2]": {"tested_on": "CCCC(=O)Oc1ccc([N+](=O)[O-])cc1", "assay": "Kinetic analysis of hydrolysis of p-nitrophenyl butyrate (p-nitrophenol formation), mutant M419A", "type": "biochemical, Staphylococcus epidermidis", "conditions": "other: M419A, substrate p-nitrophenyl butyrate, 50 mM phosphate buffer (pH 6.0), 37° C., means ± standard error, three experiments", "excerpt": "as §1, §2\n(§3) The mutation apparently affected the enzyme's ability to stabilize the transition state more than it affected the substrate binding ability of the enzyme. […] The kcat/Km ratio is the pertinent parameter to determine kinetic efficiency of an enzyme."}, "[3]": {"tested_on": "CCCC(=O)Oc1ccc([N+](=O)[O-])cc1", "assay": "Kinetic analysis of hydrolysis of p-nitrophenyl butyrate (p-nitrophenol formation), wild-type lipase", "type": "biochemical, Staphylococcus epidermidis", "conditions": "other: wild-type, substrate p-nitrophenyl butyrate, 50 mM phosphate buffer (pH 6.0), 37° C., means ± standard error, three experiments", "excerpt": "(§4) A fragment of the gehC gene (designated “Lys-303” gene), which encoded an amino acid sequence corresponding to that of the S. epidermidis lipase following proteolytic cleavage between Ala-302 and Lys-303, was synthesized by polymerase chain reaction (PCR) using a chromosomal DNA from a S. epidermidis isolated from a patient in Chang-Gung Hospital (Keelung, Taiwan) as template. The gehC gene is a Staphylococcus epidermidis strain 9 lipase gene. The gene consisted of a single open reading frame of 2064 nucleotides, which encoded a protein of 688 amino acids with a predicted molecular mass of 77 kDa. The Lys-303 gene (SEQ ID NO:13) encoded an active lipase (SEQ ID NO:14), which was about 43 kDa in molecular weight. The Lys-303-encoded lipase is also known as the “43 kDa” or “wild-type” lipase. Two primers: an N-terminal primer of SEQ ID NO:1 (5′-[…]-3′) and a C-terminal primer of SEQ ID NO:2 (5′-[…]-3′) were used in this synthetic process.\nas §2, §3"}, "[4]": {"tested_on": "CCCC(=O)Oc1ccc([N+](=O)[O-])cc1", "assay": "Kinetic analysis of hydrolysis of p-nitrophenyl butyrate (p-nitrophenol formation), mutant H648K", "type": "biochemical, Staphylococcus epidermidis", "conditions": "other: H648K, substrate p-nitrophenyl butyrate, 50 mM phosphate buffer (pH 6.0), 37° C., means ± standard error, three experiments", "experimental": "as §2"}, "[5]": {"biological_target": "Staphylococcus epidermidis strain 9 lipase variant V649I (Val-649 to Ile), SEQ ID NO:17 (Staphylococcus epidermidis, UniProt P0C0R3, V649I)", "sequence (P0C0R3 303-688 V649I)": "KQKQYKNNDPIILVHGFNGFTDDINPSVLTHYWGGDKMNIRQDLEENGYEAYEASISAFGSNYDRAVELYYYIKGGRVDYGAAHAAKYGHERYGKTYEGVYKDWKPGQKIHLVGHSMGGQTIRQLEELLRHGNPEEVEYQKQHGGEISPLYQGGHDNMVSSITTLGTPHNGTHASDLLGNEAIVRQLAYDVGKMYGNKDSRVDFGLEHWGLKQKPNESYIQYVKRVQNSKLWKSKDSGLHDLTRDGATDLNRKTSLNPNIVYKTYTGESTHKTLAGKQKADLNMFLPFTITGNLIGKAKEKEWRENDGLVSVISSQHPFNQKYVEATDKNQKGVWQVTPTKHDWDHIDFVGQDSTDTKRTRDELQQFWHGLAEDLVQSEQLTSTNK", "assay": "Kinetic analysis of hydrolysis of p-nitrophenyl butyrate (p-nitrophenol formation), mutant V649I", "type": "biochemical", "conditions": "V649I vs wild-type; substrate p-nitrophenyl butyrate", "excerpt": "as §1, §2"}, "[6]": {"tested_on": "S. hyicus lipase", "conditions": "Chang et al. (1996); cited from earlier work"}, "[7]": {"biological_target": "Staphylococcus epidermidis strain 9 lipase, wild-type (recombinant 43 kDa \"Lys-303\" lipase, C-terminal His-tag), SEQ ID NO:14 (Staphylococcus epidermidis, UniProt P0C0R3)", "sequence (P0C0R3 303-688)": "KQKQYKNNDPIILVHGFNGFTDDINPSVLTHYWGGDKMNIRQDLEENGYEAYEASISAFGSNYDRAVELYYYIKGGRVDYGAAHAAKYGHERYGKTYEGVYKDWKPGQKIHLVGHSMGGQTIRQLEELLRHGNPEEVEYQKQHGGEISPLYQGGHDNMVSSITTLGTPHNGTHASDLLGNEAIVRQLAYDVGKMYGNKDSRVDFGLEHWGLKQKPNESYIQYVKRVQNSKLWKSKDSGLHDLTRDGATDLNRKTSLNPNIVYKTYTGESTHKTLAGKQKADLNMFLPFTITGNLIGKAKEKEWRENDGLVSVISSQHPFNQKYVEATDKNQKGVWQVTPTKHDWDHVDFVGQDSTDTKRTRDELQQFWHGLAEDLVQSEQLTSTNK", "assay": "Kinetic analysis of hydrolysis of p-nitrophenyl butyrate (p-nitrophenol formation), wild-type lipase", "type": "biochemical", "conditions": "substrate p-nitrophenyl butyrate, 50 mM phosphate buffer (pH 6.0), 37° C., means ± standard error, three experiments", "excerpt": "as §4, §2, §3"}, "[8]": {"biological_target": "Staphylococcus epidermidis strain 9 lipase variant M419A (Met-419 to Ala), SEQ ID NO:15 (Staphylococcus epidermidis, UniProt P0C0R3, M419A)", "sequence (P0C0R3 303-688 M419A)": "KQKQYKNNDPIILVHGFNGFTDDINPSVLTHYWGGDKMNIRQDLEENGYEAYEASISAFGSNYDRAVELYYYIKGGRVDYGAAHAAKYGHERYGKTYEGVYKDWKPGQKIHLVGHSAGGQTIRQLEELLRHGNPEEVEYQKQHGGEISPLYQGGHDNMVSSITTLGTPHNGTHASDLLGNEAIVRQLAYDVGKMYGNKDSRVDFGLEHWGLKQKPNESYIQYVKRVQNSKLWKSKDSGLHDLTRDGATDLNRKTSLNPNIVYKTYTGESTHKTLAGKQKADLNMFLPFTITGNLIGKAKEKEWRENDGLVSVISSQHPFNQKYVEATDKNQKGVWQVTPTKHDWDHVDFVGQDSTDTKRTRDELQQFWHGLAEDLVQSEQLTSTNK", "assay": "Kinetic analysis of hydrolysis of p-nitrophenyl butyrate (p-nitrophenol formation), mutant M419A", "type": "biochemical", "conditions": "M419A vs wild-type; substrate p-nitrophenyl butyrate", "excerpt": "as §1, §2, §3"}, "[9]": {"biological_target": "Staphylococcus epidermidis strain 9 lipase variant H648K (His-648 to Lys), SEQ ID NO:16 (Staphylococcus epidermidis, UniProt P0C0R3, H648K)", "sequence (P0C0R3 303-688 H648K)": "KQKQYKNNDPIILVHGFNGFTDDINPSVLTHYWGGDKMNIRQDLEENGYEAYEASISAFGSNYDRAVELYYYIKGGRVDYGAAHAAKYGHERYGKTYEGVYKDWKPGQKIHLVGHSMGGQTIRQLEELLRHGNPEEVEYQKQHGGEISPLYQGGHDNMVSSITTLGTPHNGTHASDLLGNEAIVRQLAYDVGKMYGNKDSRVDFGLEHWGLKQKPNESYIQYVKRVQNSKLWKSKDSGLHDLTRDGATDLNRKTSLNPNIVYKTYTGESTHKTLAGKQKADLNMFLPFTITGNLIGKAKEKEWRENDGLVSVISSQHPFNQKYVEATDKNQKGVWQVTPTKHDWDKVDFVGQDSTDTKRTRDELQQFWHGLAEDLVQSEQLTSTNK", "assay": "Kinetic analysis of hydrolysis of p-nitrophenyl butyrate (p-nitrophenol formation), mutant H648K", "type": "biochemical", "conditions": "H648K vs wild-type, substrate p-nitrophenyl butyrate", "experimental": "as §2"}},
  "data": [
    {"molecule": "Staphylococcus epidermidis strain 9 lipase variant V649I (Val-649 to Ile), SEQ ID NO:17 (Staphylococcus epidermidis; V649I)", "values": [
      {"measurement": "Km", "setting": "[1]", "value": "3020 ± 210", "unit": "µM"},
      {"measurement": "kcat", "setting": "[1]", "value": "336 ± 15.7", "unit": "s⁻¹"},
      {"measurement": "kcat/Km", "setting": "[1]", "value": 111000, "unit": "M⁻¹ s⁻¹"}
    ]},
    {"molecule": "Staphylococcus epidermidis strain 9 lipase variant M419A (Met-419 to Ala), SEQ ID NO:15 (Staphylococcus epidermidis; M419A)", "values": [
      {"measurement": "Km", "setting": "[2]", "value": "3970 ± 120", "unit": "µM"},
      {"measurement": "kcat", "setting": "[2]", "value": "218 ± 14", "unit": "s⁻¹"},
      {"measurement": "kcat/Km", "setting": "[2]", "value": 54800, "unit": "M⁻¹ s⁻¹"}
    ]},
    {"molecule": "Staphylococcus epidermidis strain 9 lipase, wild-type (recombinant 43 kDa \"Lys-303\" lipase, C-terminal His-tag), SEQ ID NO:14 (Staphylococcus epidermidis)", "values": [
      {"measurement": "Km", "setting": "[3]", "value": "900 ± 80", "unit": "µM"},
      {"measurement": "kcat", "setting": "[3]", "value": "25.1 ± 0.6", "unit": "s⁻¹"},
      {"measurement": "kcat/Km", "setting": "[3]", "value": 27900, "unit": "M⁻¹ s⁻¹"}
    ]},
    {"molecule": "Staphylococcus epidermidis strain 9 lipase variant H648K (His-648 to Lys), SEQ ID NO:16 (Staphylococcus epidermidis; H648K)", "values": [
      {"measurement": "Km", "setting": "[4]", "value": "950 ± 350", "unit": "µM"},
      {"measurement": "kcat", "setting": "[4]", "value": "2.6 ± 0.9", "unit": "s⁻¹"},
      {"measurement": "kcat/Km", "setting": "[4]", "value": 2700, "unit": "M⁻¹ s⁻¹"}
    ]},
    {"molecule": "CCCC(=O)Oc1ccc([N+](=O)[O-])cc1", "note": "[p-nitrophenyl butyrate]", "values": [
      {"measurement": "increase in kcat in comparison with the wild-type enzyme", "setting": "[5]", "value": 13.4, "unit": "fold"},
      {"measurement": "increase in the kcat/Km in comparison with the wild-type enzyme", "setting": "[5]", "value": 4.0, "unit": "fold"},
      {"measurement": "Km", "setting": "[6]", "value": 2070, "unit": "µM"},
      {"measurement": "kcat", "setting": "[6]", "value": 0.53, "unit": "s⁻¹"},
      {"measurement": "kcat/Km", "setting": "[6]", "value": 257, "unit": "M⁻¹ s⁻¹"},
      {"measurement": "kcat", "setting": "[7]", "value": 25.1, "unit": "s⁻¹"},
      {"measurement": "increase in catalytic efficiency (kcat/Km) in comparison with the wild-type enzyme", "setting": "[8]", "value": 2.0, "unit": "fold"},
      {"measurement": "kcat compared with the wild-type enzyme (decreased to)", "setting": "[9]", "value": 10.4, "unit": "%"},
      {"measurement": "change in the Km compared with the wild-type enzyme", "setting": "[9]; in words", "value": "little change"}
    ]}
  ]
}
